Reference: patent publication US20170183388A1 (REGENTS OF THE UNIVERSITY OF COLORADO A BODY CORPORATE, published 2017)

B1: Mouse synaptoporin (endogenous, from brain synaptosomes) (other, UniProt Q8BGN8 1-265, looked up)
chain: MCMVIFAPLFAMFAFATCGGYSGGLRLSVDCVNKTESNLSIDIAFAYPFRLQQVTFEVPTCEGKEQQKLALVGDSSSSAEFFVTVAVFAFLYSLAATVVYIFFQNKYRENNRGPLIDFIVTVVFSFLWLVGSSAWAKGLSDVKVATDPKEVLLLMSACKQPSNKCMAVHSPVMSSLNTSVVFGFLNFILWAGNIWFVFKETGWHSSGQRYLSDPMEKHSSSYNQGRYNQESYGSSGGYSQQANLGPTSDEFGQQPSGPTSFNNQI
notes: SYP paralog, 62% identity as printed; also called SYNPR
B2: Mouse synaptogyrin1 (endogenous, from brain synaptosomes) (other, UniProt O55100 1-234, looked up)
chain: MEGGAYGAGKAGGAFDPYTLVRQPHTILRVVSWVFSIVVFGSIVNEGYLNNPEEEEEFCIYNRNPNACSYGVTVGVLAFLTCLLYLALDVYFPQISSVKDRKKAVLSDIGVSAFWAFFWFVGFCFLANQWQVSKPKDNPLNEGTDAARAAIAFSFFSIFTWAGQAVLAFQRYQIGADSALFSQDYMDPSQDSSMPYAPYVEPSAGSDPAGMGGTYQHPANAFDAEPQGYQSQGY
notes: SYP paralog, 22% identity as printed; also called SNG1; synaptogyrinl
B3: Mouse MAP2 (endogenous, from brain synaptosomes) (other, UniProt P20357 1-1828, looked up)
chain: MADERKDEGKAPHWTSASLTEAAAHPHSPEMKDQGGAGEGLSRNANGFPYREEEEGAFGEHRSQGTYSDTKENGINGELTSADRETAEEVSARIVQVVTAEAVAVLKGEQEKEAQHKDQPAALPLAAEETANLPPSPPPSPASEQTATVEEDLLTASKMEFPEQEKFPSSFAEPLDKGEMEFKMPSKPGEDFEHAALVPDTSKTPQDKKDLQGMEGEKLPPVPFAQTFGTNLEDRKQSTEPSIVMPSIGLSAEPPAPKEPKDWFIEMPTESKKDEWGLAAPISPGPLTPMREKDVLEDIPRWEGKQFDSPMPSPFHGGSFTLPLDTMKNERVSEGPRPFAPVFFQSDDKVSLQDPSALATSKESSKDEEPLKDKADKVADVSISEVTTLLGNVHSPVVEGYVGENISGEVKVTTDQEKKETSAPSVQEPTLTETEPQTKLDEKSTVSIEEAVAKKEESFKLRDDKTGVIQTSTEQSFSKEDQKGQEHTIDELKQDSFPISLEQAVTDAAMTSKTLGKVTSEPEAVSERREIQGLFEEKTADKNKLEGAGSATIAEVEMPFYEDKSGMSKYFETSALKEDMTRSTELGSDYYELSDSRGSAQESLDTISPKNQHDEKELQAKASQPSPPAQEAGYSTLAQSYTPDHPSELPEEPSSPQERMFTIDPKVYGEKRDLHSKNKDDLTLSRSLGLGGRSAIEQRSMSINLPMSCLDSIALGFNFGRGHDLSPLASDILTNTSGSMDEGDDYLPPTTPAVEKMPCFPIESKEEEDKAEQAKVTGGQTIQVETSSESPFPAKEYYKNGTVMAPDLPEMLDLAGTRSRLASVSADAEVARRKSVPSEAMLAESSTSLPPVADESPVTVKPDSQLEDMGYCVFNKYTVPLPSPVQDSENLSGESGSFYEGTDDKVRRDLATDLSLIEVKLAAAGRVKDEFTAEKEASPPTSADKSRLSREFDHDRKANDKLDTVLEKSEEHIDSKEHAKESEEMGGKVELFGLGITYDQASTKELITTKDTSPEKTEKGLSSVPEVAEVEPTTKADQGLDFAATKAEPSQLDIKVSDFGQMASGMNVDAGKAIELKFEVAQELTLSSEAPQEADSFMGVESGHIKEGGKVNETEVKEKVTKPDLVHQEAVDKEESYESSGEHESLTMESLKPDEGKKETSPETSLIQDEVALKLSVEIPCPPPVSEADLSTDEKGEVQMEFIQLPKEESTETPDIPAIPSDVTQPQPEAIVSEPAEVPSEEEEIEAGGEYDKLLFRSDTLQISDLLVSESREEFVETCPGELKGVVESVVTIEDDFITVVQTTTDEGESGSHSVRFAAPAQPEEERRPRPHDEELEIEMAAEAQAEPKDGSPDAPATPEKEEVAFSEYKTETYDDYKDETTIDDSIMDADSLWVDTQDDDRSILTEQLETIPKEERAEKDARRPSLEKHRKEKPFKTGRGRISTPERKVAKKEPSTVSRDEVRRKKAVYKKAELAKKSEVQAHSPSRKLILKPAIKYTRPTHLSCVKRKTTAASGDLAQAPGAFKQAKDKVTDGISKSPEKRSSLPRPSSILPPRRGVSGDREENSFSLNSSISSARRTTRSEPIRRAGKSGTSTPTTPGSTAITPGTPPSYSSRTPGTPGTPSYPRTPGTPKSGILVPSEKKVAIIRTPPKSPATPKQLRLINQPLPDLKNVKSKIGSTDNIKYQPKGGQVQIVTKKIDLSHVTSKCGSLKNIRHRPGGGRVKIESVKLDFKEKAQAKVGSLDNAHHVPGGGNVKIDSQKLNFREHAKARVDHGAEIITQSPSRSSVASPRRLSNVSSSGSINLLESPQLATLAEDVTAALAKQGL
notes: Loading control; also called loading control
B4: Mouse synaptophysin (endogenous, from brain synaptosomes or cultured neurons) (other, UniProt Q62277 1-314, looked up)
chain: MLLLADMDVVNQLVAGGQFRVVKEPLGFVKVLQWVFAIFAFATCGSYTGELRLSVECANKTESALNIEVEFEYPFRLHQVYFDAPSCVKGGTTKIFLVGDYSSSAEFFVTVAVFAFLYSMGALATYIFLQNKYRENNKGPMMDFLATAVFAFMWLVSSSAWAKGLSDVKMATDPENIIKEMPMCRQTGNTCKELRDPVTSGLNTSVVFGFLNLVLWVGNLWFVFKETGWAAPFMRAPPGAPEKQPAPGDAYGDAGYGQGPGGYGPQDSYGPQGGYQPDYGQPASGGGGGYGPQGDYGQQGYGQQGAPTSFSNQM
notes: Endogenous protein detected by western blot; also called SYP; Syp

Key:
[1] = target: T1, BioPure recombinant Aβ42 (UniProt P05067 672-713); test: pull-down of whole brain synaptosome proteins on Aβ42 coupled to AminoLink resin, western blot [A]
T1 construct: domain: Aβ(1-42); Recombinant peptide from AmideBio, coupled to AminoLink resin or to SPR chips by EDC-NHS; For treating neurons the peptide came from R Peptide or AmideBio; also called Aβ(1-42); amyloid β

[2] = target: T1, BioPure recombinant Aβ42; test: Aβ42 coupled to AminoLink resin, mouse whole brain synaptosome extract, western blot

T1 sequence (P05067 672-713 limits assumed): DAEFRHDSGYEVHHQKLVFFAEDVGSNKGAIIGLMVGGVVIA

Binder | binding result [1] | binding result [2]
B1 | no binding | 
B2 | no binding | 
B3 | no binding | 
B4 |  | binds
